Assay results: patent publication US6043211A, “Method for inhibiting the activity of a platelet-derived growth factor receptor binding protein” (The Regents of the University of California, priority 1995, dated 2000)
Entries after “also recorded” stand apart in the source; their conditions may differ. Square brackets hold non-standard residues; d marks the D form. Ends that are not written are not given here. Peptide text beside a SMILES is read from it. pY = N[C@@H](Cc1ccc(OP(=O)(O)O)cc1)C(=O)O

Experiments:
[1] = biological target: T1, 85 kD protein association with type B PDGF receptor (Mus musculus, UniProt P26450); experiment: In vitro association of 85 kD phosphoprotein with immobilized baculovirus-expressed PDGF receptor (in vitro kinase assay); assay type: binding; conditions: peptides (50 μM) preincubated with unstimulated 3T3 lysate, FIG. 4a
T1 construct: Cytoplasmic cell lysates from density-arrested BALB/c 3T3 cells were mixed with the immobilized receptor; endogenous in cells; host or cells: BALB/c 3T3 cell lysate (85 kD protein); receptor made in Sf9 insect cells with recombinant baculovirus
Description: In in vitro experiments, the type B PDGF receptor was expressed in an insect cell expression system, partially purified, and immobilized using anti-receptor antibodies and protein A Sepharose. The receptor was allowed to autophosphorylate in vitro, so that it would be in a conformation that mimicked the ligand-activated state of the receptor. Cytoplasmic cell lysates from density-arrested BALB/c 3T3 cells were mixed with the immobilized receptor and the complexes were washed extensively. […] The receptor-associated phosphoproteins were detected by an in vitro kinase assay using ^32 P-ATP.
To determine the ability of a series of synthetic peptides derived from this sequence to block the interaction between the receptor and the 85 kD/PI3 kinase activity, 3T3 lysates were incubated with the different peptides prior to mixing with immobilized receptor. […] The other lanes show the proteins that associated with the receptor in the presence of derivatives of the Y719 peptide.
Infected cells were washed twice with cold PBS and lysed in 1 ml of lysis buffer (1% NP-40, 20 mM Tris (pH 8.0), 173 mM NaCl, 10% glycerol, 2 mM EDTA, 1 mM phenylmethylsulfonylfluoride (PMSF), aprotinin (0.15 U/ml), 20 μM leupeptin, 1 mM sodium orthovanadate) at 4° C. for 20 min with rocking. In most experiments (except where indicated in the legend of FIG. 3) the immunoprecipitated receptor was autophosphorylated in vitro by incubating the immune complexes in a buffer containing 20 mM Tris (pH 7.5), 20 mM MnCl, 100 μM ATP for 15 min at 25° C. Lysates were cleared of insoluble material by centrifugation at 13,000× g for 10 min. Lysates were incubated with receptor antibodies (1:500 dilution) for 4 h at 4° C. Receptor-antibody complexes were precipitated using Protein-A sepharose (Sigma) and washed consecutively with RIPA buffer (lysis buffer with 0.1% SDS), wash buffer 1 [0.5% NP-40, 0.5 M LiCl, 50 mM Tris (pH 7.4)] and with 10 mM Tris (pH 7.4). The PI3 kinase association assay was performed by incubating the immobilized receptor with BALB c/3T3 cell lysates for 3 hours at 4° C. The immune complexes were consecutively washed with cold PBS; 0.5% NP-40, 0.5 M LiCl and 51 50 mM Tris (pH 7.4).

[2] = biological target: T2, PI3 kinase association with type B PDGF receptor (Mus musculus, UniProt P26450); experiment: In vitro association of PI3 kinase activity with immobilized baculovirus-expressed PDGF receptor; assay type: binding; conditions: for Blocking of association of PI3 kinase activity with the receptor: peptides (50 μM) preincubated with unstimulated 3T3 lysate, FIG. 4b
T2 construct: Cytoplasmic cell lysates from density-arrested BALB/c 3T3 cells were mixed with the immobilized receptor; endogenous in cells; host or cells: BALB/c 3T3 cell lysate (85 kD protein); receptor made in Sf9 insect cells with recombinant baculovirus
Description: An in vitro system was used to study the interaction of PDGF receptors and PI3 kinase. […] These phosphoproteins include the 85 kDa protein and a 110 kDa protein that have recently been correlated with PI3 kinase activity. In in vitro experiments, the type B PDGF receptor was expressed in an insect cell expression system, partially purified, and immobilized using anti-receptor antibodies and protein A Sepharose. The receptor was allowed to autophosphorylate in vitro, so that it would be in a conformation that mimicked the ligand-activated state of the receptor. Cytoplasmic cell lysates from density-arrested BALB/c 3T3 cells were mixed with the immobilized receptor and the complexes were washed extensively. PI3 kinase activity was found in the complex of proteins associated with the receptor (FIG. 1d). The receptor-associated phosphoproteins were detected by an in vitro kinase assay using ^32 P-ATP. At least four receptor-associated proteins with apparent molecular weights of 140 kD, 120/110 kD (sometimes a doublet), 85 kD and 74 kD were radiolabeled (the bands at 160 kD and 150 kD are the baculovirus-expressed receptor and its precursor, respectively). The 140 kD band has been previously identified as […] and the band at 74 kD includes the raf-1 kinase and probably another molecule as well. The 85 kD protein co-migrated with the 85 kD band, previously considered to be PI3 kinase, in anti-phosphotyrosine immunoprecipitates of cell lysates prepared from PDGF-stimulated cells. The association of 85 and 110 kD proteins with the baculovirus-expressed receptor was also observed by silver stain analysis.
To determine the ability of a series of synthetic peptides derived from this sequence to block the interaction between the receptor and the 85 kD/PI3 kinase activity, 3T3 lysates were incubated with the different peptides prior to mixing with immobilized receptor. […] The arrow indicates the position of the 85 kD protein that co-purified with the PI3 kinase activity. […]

[3] = biological target: T3, 85 kD protein (Mus musculus, UniProt P26450); experiment: Receptor blot: 32P-labeled PDGF receptor probe binding to immobilized 85 kD protein; conditions: 2.5 μM peptide, FIG. 7
T3 construct: Cytoplasmic cell lysates from density-arrested BALB/c 3T3 cells were mixed with the immobilized receptor; endogenous in cells; host or cells: BALB/c 3T3 cell lysate (85 kD protein); receptor made in Sf9 insect cells with recombinant baculovirus
Description: FIG. 7 illustrates the association of soluble radiolabeled receptor with immobilized 85 kD protein ("receptor blot"). Baculovirus-expressed PDGF receptors were immunoprecipitated using receptor antibodies and the receptor was ^32 P-labeled in vitro by autophosphorylation. The solubilized radiolabeled receptor was used to probe nitrocellulose filters containing SDS-polyacrylamide gel-fractionated lysates from control (lanes 1, 3, 4 and 5) or PDGF stimulated (lane 2) cells. In the peptide competition experiments (lane 3, 4, and 5) the peptides were added to the nitrocellulose paper along with the radiolabeled receptor probe. The arrow indicates the position of the 85 kD protein.
To determine the nature of the interaction of the receptor with the 85 kD protein, a modification of Western blotting methodology was used. PDGF receptor from Sf9 cells infected with PDGF receptor baculovirus was immuno precipitated with receptor antibodies, labeled with ^32 P in vitro, and used as a probe to bind proteins from 3T3 cell lysates that had been separated electrophoretically and transferred to nitrocellulose. The radiolabeled PDGF receptor bound directly to an 85 kDa protein in unstimulated 3T3 cell lysate (FIG. 7, lane 1). […] The direct binding interaction appears to involve the 20 amino acid segment in the kinase insert region containing tyrosine 719, and tyrosine phosphorylation of this segment appears to be necessary for the interaction.
Cell lysate proteins transferred to nitrocellulose membranes were analyzed for their ability to bind directly to the PDGF receptor by probing the nitrocellulose membrane with ^32 P-labeled PDGF receptor. To prepare the radiolabeled receptor probe, baculovirus-expressed receptor was immunoprecipitated from 10^6 Sf9 cells. The immune complexes were washed and labeled by autophosphorylation as described above. Labeled receptor was solubilized from the immunoprecipitates by repeated incubation of the immunoprecipitate in solubilization buffer (0.4% SDS, 100 mM NaCl, 2 mM EDTA, 2 mM β-mercaptoethanol, and 50 mM triethanolamine, pH 7.4) at 100° C. for 2 min. […]

[4] = biological target: T4, transfected type B human receptor (Homo sapiens, UniProt P09619); experiment: Competitive binding of PDGF forms against 125I-PDGF on CHO transfectants (CHO-HR5)
T4 construct: expressed in transfected cells; host or cells: CHO (clone CHO-HR5), plasmid pSVRH5
Procedure: Binding was carried out at 37° C. for 45 min in whole cell suspension.

[5] = system: native mouse receptor; experiment: Competitive binding of PDGF forms against 125I-PDGF on BALB/c 3T3 cells; conditions: mouse 3T3 cells, yeast-expressed homodimers
Description: The ability of the human recombinant AA and BB homodimers to compete for the type B receptor sites and displace ^125 I-labeled PDGF (prepared as described below) was studied. Each homodimer was produced selectively by a yeast expression system and was purified from yeast media that is devoid of other mesenchymal cell growth factors, thus avoiding the artifact of contamination by factors that might be present in mammalian expression systems.
BALB/c 3T3 cells and CHO transfectants (CHO-HR5) were incubated with ^125 I-PDGF in the presence of increasing concentrations of AA or BB. Binding was carried out at 37° C. for 45 min in whole cell suspension. Unbound, radiolabeled PDGF was removed by centrifugation on a Ficoll gradient Non-specific binding, determined by incubating CHO cells with ^125 I-PDGF, accounted for 25 percent of the bound radioactivity.

[6] = biological target: T5, type B receptor tyrosine kinase (Homo sapiens, UniProt P09619); experiment: Activation of PDGF receptor tyrosine kinase (autophosphorylation, anti-phosphotyrosine Western blot) in CHO-HR5; assay type: cell-based; conditions: transfected human receptor
T5 construct: expressed in transfected cells; host or cells: CHO (clone CHO-HR5), plasmid pSVRH5
Description: Following polyacrylamide-SDS electrophoresis, the phosphorylated receptor was identified by Western blot using an anti-phosphotyrosine antibody.

T1 sequence (P26450 whole entry): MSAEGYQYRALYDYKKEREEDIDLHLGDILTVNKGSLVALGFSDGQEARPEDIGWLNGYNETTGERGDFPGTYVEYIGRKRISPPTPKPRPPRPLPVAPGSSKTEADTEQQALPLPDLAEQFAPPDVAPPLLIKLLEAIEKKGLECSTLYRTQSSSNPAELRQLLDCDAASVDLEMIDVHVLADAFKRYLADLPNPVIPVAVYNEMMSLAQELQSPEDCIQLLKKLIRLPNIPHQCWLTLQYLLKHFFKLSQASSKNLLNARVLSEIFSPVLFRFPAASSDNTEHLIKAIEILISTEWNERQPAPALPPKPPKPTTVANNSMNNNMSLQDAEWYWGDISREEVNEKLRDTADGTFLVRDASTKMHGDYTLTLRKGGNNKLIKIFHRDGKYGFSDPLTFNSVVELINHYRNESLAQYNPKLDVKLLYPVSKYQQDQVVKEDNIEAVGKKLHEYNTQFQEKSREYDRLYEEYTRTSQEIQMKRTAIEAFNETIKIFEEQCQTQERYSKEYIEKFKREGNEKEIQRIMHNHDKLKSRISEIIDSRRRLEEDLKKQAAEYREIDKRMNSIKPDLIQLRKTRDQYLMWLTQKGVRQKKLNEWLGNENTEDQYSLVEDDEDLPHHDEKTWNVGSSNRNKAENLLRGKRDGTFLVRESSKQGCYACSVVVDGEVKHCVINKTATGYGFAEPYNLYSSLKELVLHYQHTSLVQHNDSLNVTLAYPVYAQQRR
T1 sequence (P42337 whole entry partner): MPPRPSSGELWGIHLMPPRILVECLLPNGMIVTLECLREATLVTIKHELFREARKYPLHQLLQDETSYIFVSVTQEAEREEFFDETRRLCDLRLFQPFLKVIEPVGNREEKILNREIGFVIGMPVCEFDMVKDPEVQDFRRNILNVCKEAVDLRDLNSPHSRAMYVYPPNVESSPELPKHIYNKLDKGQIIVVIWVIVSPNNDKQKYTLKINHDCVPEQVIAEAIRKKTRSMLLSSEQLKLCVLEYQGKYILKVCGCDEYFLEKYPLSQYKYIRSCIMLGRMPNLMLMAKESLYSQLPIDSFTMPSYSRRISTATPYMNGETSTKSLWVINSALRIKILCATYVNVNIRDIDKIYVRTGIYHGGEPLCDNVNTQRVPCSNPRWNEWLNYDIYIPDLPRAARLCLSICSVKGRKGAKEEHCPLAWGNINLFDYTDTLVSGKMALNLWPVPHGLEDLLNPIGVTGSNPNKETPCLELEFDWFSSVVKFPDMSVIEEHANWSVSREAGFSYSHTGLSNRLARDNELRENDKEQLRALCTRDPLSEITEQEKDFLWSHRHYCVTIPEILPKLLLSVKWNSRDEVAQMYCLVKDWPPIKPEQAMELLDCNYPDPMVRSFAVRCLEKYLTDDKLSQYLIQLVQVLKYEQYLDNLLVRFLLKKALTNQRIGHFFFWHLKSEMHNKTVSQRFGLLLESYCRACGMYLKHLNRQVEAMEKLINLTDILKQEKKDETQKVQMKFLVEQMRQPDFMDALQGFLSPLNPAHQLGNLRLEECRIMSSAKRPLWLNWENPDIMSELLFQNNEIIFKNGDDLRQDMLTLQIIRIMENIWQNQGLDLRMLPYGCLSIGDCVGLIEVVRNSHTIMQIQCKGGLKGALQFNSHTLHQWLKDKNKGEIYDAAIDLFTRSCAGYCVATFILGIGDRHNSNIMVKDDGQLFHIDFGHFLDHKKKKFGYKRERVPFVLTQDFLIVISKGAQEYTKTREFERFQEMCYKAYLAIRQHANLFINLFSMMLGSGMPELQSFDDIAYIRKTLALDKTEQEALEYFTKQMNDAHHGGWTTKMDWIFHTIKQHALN
T3 sequence (P26450 whole entry): as the sequence (P26450 whole entry) above
T3 sequence (P42337 whole entry partner): as the sequence (P42337 whole entry partner) above
T2 sequence (P26450 whole entry): as the sequence (P26450 whole entry) above
T2 sequence (P42337 whole entry partner): as the sequence (P42337 whole entry partner) above
T5 sequence (P09619 33-1106): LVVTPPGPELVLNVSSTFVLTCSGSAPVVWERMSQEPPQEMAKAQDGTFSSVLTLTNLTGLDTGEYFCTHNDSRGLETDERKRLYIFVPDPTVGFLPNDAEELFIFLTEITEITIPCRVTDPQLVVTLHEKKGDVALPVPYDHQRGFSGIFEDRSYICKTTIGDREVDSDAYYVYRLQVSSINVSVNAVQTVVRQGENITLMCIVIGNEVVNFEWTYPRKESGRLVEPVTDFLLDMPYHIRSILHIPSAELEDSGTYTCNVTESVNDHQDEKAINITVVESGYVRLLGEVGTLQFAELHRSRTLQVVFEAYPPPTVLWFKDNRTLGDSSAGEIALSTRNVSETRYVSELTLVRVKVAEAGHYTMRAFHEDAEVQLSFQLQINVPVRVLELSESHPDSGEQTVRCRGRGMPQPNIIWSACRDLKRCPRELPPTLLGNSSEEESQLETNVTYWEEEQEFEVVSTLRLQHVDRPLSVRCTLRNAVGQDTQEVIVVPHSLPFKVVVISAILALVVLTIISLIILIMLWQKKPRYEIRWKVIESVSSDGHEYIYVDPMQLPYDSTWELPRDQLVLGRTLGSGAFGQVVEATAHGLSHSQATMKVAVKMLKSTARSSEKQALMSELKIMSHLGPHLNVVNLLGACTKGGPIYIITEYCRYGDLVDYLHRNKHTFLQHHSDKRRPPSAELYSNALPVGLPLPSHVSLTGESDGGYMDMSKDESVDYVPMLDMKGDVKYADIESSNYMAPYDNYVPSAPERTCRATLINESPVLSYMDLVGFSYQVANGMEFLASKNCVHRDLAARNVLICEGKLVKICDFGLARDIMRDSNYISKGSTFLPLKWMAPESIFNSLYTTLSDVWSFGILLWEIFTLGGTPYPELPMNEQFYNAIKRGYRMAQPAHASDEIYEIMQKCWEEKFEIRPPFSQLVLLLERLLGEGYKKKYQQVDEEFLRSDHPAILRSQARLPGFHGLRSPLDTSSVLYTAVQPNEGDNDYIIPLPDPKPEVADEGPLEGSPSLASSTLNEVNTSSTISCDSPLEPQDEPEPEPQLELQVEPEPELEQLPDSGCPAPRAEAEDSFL
T4 sequence (P09619 33-1106): as above

| Molecule | Blocking of binding of the 85 kD phosphoprotein to the receptor [1] | Effect on association of radiolabeled receptor with immobilized 85 kD protein (receptor blot) [3] | other results |
| --- | --- | --- | --- |
| CC[C@H](C)[C@H](NC(=O)[C@H](CO)NC(=O)[C@H](CCC(=O)O)NC(=O)[C@H](CC(=O)O)NC(=O)[C@H](CCCCN)NC(=O)[C@H](CO)NC(=O)[C@H](CCSC)NC(=O)[C@H](CC(=O)O)NC(=O)[C@H](CCSC)NC(=O)[C@H](Cc1ccc(OP(=O)(O)O)cc1)NC(=O)CNC(=O)CN)C(=O)N[C@@H](CC(=O)O)C(=O)O [Y708P short] | had blocking activity | – | – |
| CC[C@H](C)[C@H](NC(=O)[C@H](CO)NC(=O)[C@H](CCC(=O)O)NC(=O)[C@H](CC(=O)O)NC(=O)[C@H](CCCCN)NC(=O)[C@H](CO)NC(=O)[C@H](CCSC)NC(=O)[C@H](CC(=O)O)NC(=O)[C@H](CCSC)NC(=O)[C@H](Cc1ccc(OP(=O)(O)O)cc1)NC(=O)CNC(=O)CN)C(=O)N[C@@H](CC(=O)O)C(=O)N[C@@H](Cc1ccc(OP(=O)(O)O)cc1)C(=O)N[C@H](C(=O)N1CCC[C@H]1C(=O)N[C@@H](CCSC)C(=O)N[C@@H](CC(C)C)C(=O)N[C@@H](CC(=O)O)C(=O)N[C@@H](CCSC)C(=O)O)C(C)C [Y708P/Y719P] | blocked binding of the 85 kD protein | – | – |
| CC[C@H](C)[C@H](NC(=O)[C@H](CO)NC(=O)[C@H](CCC(=O)O)NC(=O)[C@H](CC(=O)O)NC(=O)[C@H](CCCCN)NC(=O)[C@H](CO)NC(=O)[C@H](CCSC)NC(=O)[C@H](CC(=O)O)NC(=O)[C@H](CCSC)NC(=O)[C@H](Cc1ccc(O)cc1)NC(=O)CNC(=O)CN)C(=O)N[C@@H](CC(=O)O)C(=O)N[C@@H](Cc1ccc(OP(=O)(O)O)cc1)C(=O)N[C@H](C(=O)N1CCC[C@H]1C(=O)N[C@@H](CCSC)C(=O)N[C@@H](CC(C)C)C(=O)N[C@@H](CC(=O)O)C(=O)N[C@@H](CCSC)C(=O)O)C(C)C [Y719P] | blocked the binding of the 85 kD phosphoprotein | failed to associate with the 85 kD protein | IC50 [2]: ~5 µM |
| CC[C@H](C)[C@H](NC(=O)[C@H](CO)NC(=O)[C@H](CCC(=O)O)NC(=O)[C@H](CC(=O)O)NC(=O)[C@H](CCCCN)NC(=O)[C@H](CO)NC(=O)[C@H](CCSC)NC(=O)[C@H](CC(=O)O)NC(=O)[C@H](CCSC)NC(=O)[C@H](Cc1ccc(O)cc1)NC(=O)CNC(=O)CN)C(=O)N[C@@H](CC(=O)O)C(=O)N[C@@H](Cc1ccc(O)cc1)C(=O)N[C@H](C(=O)N1CCC[C@H]1C(=O)N[C@@H](CCSC)C(=O)N[C@@H](CC(C)C)C(=O)N[C@@H](CC(=O)O)C(=O)N[C@@H](CCSC)C(=O)O)C(C)C [Y719] (H-GGYMDMSKDESIDYVPMLDM-OH) | No change in the pattern of receptor-associated protein | did not interfere with the association of the receptor with the 85 kD protein | – |
| AA: Human recombinant AA homodimer of PDGF produced by a yeast expression system | – | – | Relative affinity for the transfected type B human receptor ([4]; CHO-HR5, yeast-expressed homodimers): lower affinity than the BB form; Competition for 125I-PDGF labeled sites ([4]; human receptor transfectants, 37° C., 45 min): competed; Relative affinity for the native mouse receptor [5]: lower affinity than the BB form; Activation of type B receptor tyrosine kinase (autophosphorylation) [6]: stimulated autophosphorylation of the transfected human receptor; also recorded: activates the receptor tyrosine kinase of the type B receptor |
| AB: Human partially purified platelet-derived AB PDGF heterodimer | – | – | Activation of type B receptor tyrosine kinase (autophosphorylation) [6]: stimulated autophosphorylation of the transfected human receptor |
| MDMSKDESIDYVPMLDM (MDMSKDESID[pY]VPMLDM) [Y719P short] | blocked binding of the 85 kD protein; also recorded: had blocking activity | – | Blocking of association of PI3 kinase activity with the receptor [2]: inhibited the association of PI3 kinase activity with the receptor |
| MMDIKVPMDEYMSDYSDLGG (MMDIKVPMDE[pY]MSDYSDLGG; not fully specified; printed as MMDIKVPMDE*YMSDYSDLGG) [Y719P scrambled] | failed to block binding of the 85 kD protein | did not interfere with the association of the receptor with the 85 kD protein | Blocking of association of PI3 kinase activity with the receptor [2]: did not prevent the association of PI3 kinase activity with the receptor |
